First the molecules themselves.
B1: SEQ ID NO 79 (receptor)
chain: MGHLPKPTLWAEPGSVITMDQPVTLRCQGGQETQEYRLYREKKTAPWITRIPQELVKKGQFPIPSITWEHAGRYRCYYGTQTAGRSESSDPLELVVTGVYIKPTLSAQPSPVVNSGGNVTLQCDSQVAFDGFILCKEGEDEHPQCLNSQPHARGSSRAIFSVGPVSPGRRWWYRCYAYDSNSPYEWSLPSDLLELLVL
notes: mutated soluble two domain ILT-2
B2: SEQ ID NO 100 (receptor)
chain: MGHLPKPTLWAEPGSVITQGSPVTLRCQGGQETQEYRLYREKKTAPWITRIPQELVKKGQFPIPSITWEHAGRYRCYYGSDTAGRSESSDPLELVVTGIYLQPTLSAQPSPVVNSGGNVTLQCDSQVAFDGFILCKEGEDEHPQCLNSQPHARGSSRAIFSVGPVSPGRRWWYRCYAYDSNSPYEWSLPSDLLELLVL
notes: as for B1
B3: SEQ ID NO 81 (receptor)
chain: MGHLPKPTLWAEPGSVITMDQPVTLRCQGGQETQEYRLYREKKTAPWITRIPQELVKKGQFPIPSITWEHAGRYRCMQYTLTAGRSESSDPLELVVTGVYIKPTLSAQPSPVVNSGGNVTLQCDSQVAFDGFILCKEGEDEHPQCLNSQPHARGSSRAIFSVGPVSPSRRWWYRCYAYDSNSPYEWSLPSDLLELLVL
notes: as for B1
B4: SEQ ID NO 88 (receptor)
chain: MGHLPKPTLWAEPGSVITVGQPVTLRCQGGQETQEYRLYREKKTAPWITRIPQELVKKGQFPIPSITWEHAGRYRCYYGSDTAGRSESSDPLELVVTGVYIKPTLSAQPSPVVNSGGNVTLQCDSQVAFDGFILCKEGEDEHPQCLNSQPHARGSSRAIFSVGPVSPGRRWWYRCYAYDSNSPYEWSLPSDLLELLVL
notes: as for B1
B5: SEQ ID NO 91 (receptor)
chain: MGHLPKPTLWAEPGSVITQGSPVTLRCQGGQETQEYRLYREKKTAPWITRIPQELVKKGQFPIPSVTWEHAGRYRCYYGSDTAGRSESSDPLELVVTGVYIKPTLSAQPSPVVNSGGNVTLQCDSQVAFDGFILCKEGEDEHPQCLNSQPHARGSSRAIFSVGPVSPSRRWWYRCYAYDSNSPYEWSLPSDLLELLVL
notes: as for B1
B6: SEQ ID NO 98 (receptor)
chain: MGHLPKPTLWAEPGSVITQGSPVTLRCQGGQETQEYRLYREKKTAPWITRIPQELVKKGQFPIPSITWEHAGRYRCYYGSDTAGRSESSDPLELVVTGIYQRPTLSAQPSPVVNSGGNVTLQCDSQVAFDGFILCKEGEDEHPQCLNSQPHARGSSRAIFSVGPVSPGRRWWYRCYAYDSNSPYEWSLPSDLLELLVL
notes: as for B1
B7: SEQ ID NO 97 (receptor)
chain: MGHLPKPTLWAEPGSVITQGSPVTLRCQGGQETQEYRLYREKKTAPWITRIPQELVKKGQFPIPSITWEHAGRYRCYYGSDTAGRSESSDPLELVVTGIYKAPTLSAQPSPVVNSGGNVTLQCDSQVAFDGFILCKEGEDEHPQCLNSQPHARGSSRAIFSVGPVSPGRRWWYRCYAYDSNSPYEWSLPSDLLELLVL
notes: as for B1
B8: SEQ ID NO 85 (receptor)
chain: MGHLPKPTLWAEPGSVITQGSPVTLRCQGGQETQEYRLYREKKTAPWITRIPQELVKKGQFPIPSITWEHAGRYRCYYGSDTAGRSESSDPLELVVTGIYQAPTLSAQPSPVVNSGGNVTLQCDSQVAFDGFILCKEGEDEHPQCLNSQPHARGSSRAIFSVGPVSPSRRWWYRCYAYDSNSPYEWSLPSDLLELLVL
notes: as for B1
B9: SEQ ID NO 96 (receptor)
chain: MGHLPKPTLWAEPGSVITQGSPVTLRCQGGQETQEYRLYREKKTAPQITRIPQELVKKGQFPIPSITWEHAGRYRCYYGSDTAGRSESSDPLELVVTGVYVAPTLSAQPSPVVNSGGNVTLQCDSQVAFDGFILCKEGEDEHPQCLNSQPHARGSSRAIFSVGPVSPGRRWWYRCYAYDSNSPYEWSLPSDLLELLVL
notes: as for B1
B10: SEQ ID NO 99 (receptor)
chain: MGHLPKPTLWAEPGSVITQGSPVTLRCQGGQETQEYRLYREKKTAPWITRIPQELVKKGQFPIPSITWEHAGRYRCYYGSDTAGRSESSDPLELVVTGIYQAPTLSAQPSPVVNSGGNVTLQCDSQVAFDGFILCKEGEDEHPQCLNSQPHARGSSRAIFSVGPVSPGRRWWYRCYAYDSNSPYEWSLPSDLLELLVL
notes: as for B1
B11: SEQ ID NO 94 (receptor)
chain: MGHLPKPTLWAEPGSVITQGSPVTLRCQGGQETQEYRLYREKKTAPWITRIPQELVKKGQFPIPSITWEHAGRYRCYYGGQEGARSESSDPLELVVTGVYIKPTLSAQPSPVVNSGGNVTLQCDSQVAFDGFILCKEGEDEHPQCLNSQPHARGSSRAIFSVGPVSPSRRWWYRCYAYDSNSPYEWSLPSDLLELLVL
notes: as for B1
B12: SEQ ID NO 83 (receptor)
chain: MGHLPKPTLWAEPGSVITQGSPVTLRCQGGQETQEYRLYREKKTAPWITRIPQELVKKGQFPIPSITWEHAGRYRCYYGSDTAGRSESSDPLELVVTGIYLAPTLSAQPSPVVNSGGNVTLQCDSQVAFDGFILCKEGEDEHPQCLNSQPHARGSSRAIFSVGPVSPSRRWWYRCYAYDSNSPYEWSLPSDLLELLVL
notes: as for B1
B13: SEQ ID NO 90 (receptor)
chain: MGHLPKPTLWAEPGSVITQGSPVTLRCQGGQETQEYRLYREKKTAPWITRIPQELVKKGQFPIPSITWEHAGRYRCYYGSDTAGRSESSDPLELVVTGVYIKPTLSAQPSPVVNSGGNVTLQCDSQVAFDGFILCKEGEDEHPQCLNSQPHARGSSRAIFSVGPVSPGRRWWYRCYAYDSNSPYEWSLPSDLLELLVL
notes: as for B1
B14: SEQ ID NO 89 (receptor)
chain: MGHLPKPTLWAEPGSVITLGQPVTLRCQGGQETQEYRLYREKKTAPWITRIPQELVKKGQFPIPSITWEHAGRYRCYYGSDTAGRSESSDPLELVVTGVYIKPTLSAQPSPVVNSGGNVTLQCDSQVAFDGFILCKEGEDEHPQCLNSQPHARGSSRAIFSVGPVSPGRRWWYRCYAYDSNSPYEWSLPSDLLELLVL
notes: as for B1
B15: SEQ ID NO 82 (receptor)
chain: MGHLPKPTLWAEPGSVITQGSPVTLRCQGGQETQEYRLYREKKTAPWITRIPQELVKKGQFPIPSITWEHAGRYRCYYGSDTAGRSESSDPLELVVTGIYRQPTLSAQPSPVVNSGGNVTLQCDSQVAFDGFILCKEGEDEHPQCLNSQPHARGSSRAIFSVGPVSPSRRWWYRCYAYDSNSPYEWSLPSDLLELLVL
notes: as for B1
B16: SEQ ID NO 84 (receptor)
chain: MGHLPKPTLWAEPGSVITQGSPVTLRCQGGQETQEYRLYREKKTAPWITRIPQELVKKGQFPIPSITWEHAGRYRCYYGSDTAGRSESSDPLELVVTGIYKAPTLSAQPSPVVNSGGNVTLQCDSQVAFDGFILCKEGEDEHPQCLNSQPHARGSSRAIFSVGPVSPSRRWWYRCYAYDSNSPYEWSLPSDLLELLVL
notes: as for B1
B17: SEQ ID NO 92 (receptor)
chain: MGHLPKPTLWAEPGSVITQGSPVTLRCQGGQETQEYRLYREKKTAPWITRIPQELVKKGQFPIPSITWEHAGRYRCVGWAVTAGRSESSDPLELVVTGVYIKPTLSAQPSPVVNSGGNVTLQCDSQVAFDGFILCKEGEDEHPQCLNSQPHARGSSRAIFSVGPVSPSRRWWYRCYAYDSNSPYEWSLPSDLLELLVL
notes: as for B1
B18: SEQ ID NO 87 (receptor)
chain: MGHLPKPTLWAEPGSVITQGRPVTLRCQGGQETQEYRLYREKKTAPWITRIPQELVKKGQFPIPSITWEHAGRYRCYYGSDTAGRSESSDPLELVVTGVYIKPTLSAQPSPVVNSGGNVTLQCDSQVAFDGFILCKEGEDEHPQCLNSQPHARGSSRAIFSVGPVSPSRRWWYRCYAYDSNSPYEWSLPSDLLELLVL
notes: as for B1
B19: SEQ ID NO 95 (receptor)
chain: MGHLPKPTLWAEPGSVITQGSPVTLRCQGGQETQEYRLYREKKTAPWITRIPQELVKKGQFPIPSITWEHAGRYRCQGVSQTAGRSESSDPLELVVTGVYIKPTLSAQPSPVVNSGGNVTLQCDSQVAFDGFILCKEGEDEHPQCLNSQPHARGSSRAIFSVGPVSPSRRWWYRCYAYDSNSPYEWSLPSDLLELLVL
notes: as for B1
B20: SEQ ID NO 80 (receptor)
chain: MGHLPKPTLWAEPGSVITMDQPVTLRCQGGQETQEYRLYREKKTAPWITRIPQELVKKGQFPIPSITWEHAGRYRCVIQRGTAGRSESSDPLELVVTGVYIKPTLSAQPSPVVNSGGNVTLQCDSQVAFDGFILCKEGEDEHPQCLNSQPHARGSSRAIFSVGPVSPSRRWWYRCYAYDSNSPYEWSLPSDLLELLVL
notes: as for B1
B21: SEQ ID NO 86 (receptor)
chain: MGHLPKPTLWAEPGSVITQGAPVTLRCQGGQETQEYRLYREKKTAPWITRIPQELVKKGQFPIPSITWEHAGRYRCYYGSDTAGRSESSDPLELVVTGVYIKPTLSAQPSPVVNSGGNVTLQCDSQVAFDGFILCKEGEDEHPQCLNSQPHARGSSRAIFSVGPVSPGRRWWYRCYAYDSNSPYEWSLPSDLLELLVL
notes: as for B1

The values that follow come from patent US20100135997A1 (MEDGENE, published 2010).

The Kd is the concentration at which binding is half-saturated. A high value points to a looser complex. As a reminder, the koff is the first-order rate constant of dissociation.

The target in the test is T1, HLA-A*0201 loaded with the Carcinoembryonic antigen (CEA)-derived … peptide (biotin on the C-terminal biotinylation tag).
T1 construct: Soluble, biotinylated, immobilised on a streptavidin chip
The experiment in a line: Biacore SPR. As to the method:
SPR measures changes in refractive index expressed in response units (RU) near a sensor surface within a small flow cell, a principle that can be used to detect receptor ligand interactions and to analyse their affinity and kinetic parameters. The probe flow cells were prepared by immobilising the pMHC complexes in flow cells via biotin-tag binding. The assay was then performed by passing soluble ILT-like molecule over the surfaces of the different flow cells at a constant flow rate, measuring the SPR response in doing so.
Background: Surface plasmon resonance follows binding to a sensor surface in real time, without labels.
Regarding B1, the Kd was ≤ 1000 nM and the off-rate (koff) is ≤ 2 s⁻¹.
For B2 the same measures were ≤ 1000 nM and ≤ 2 s⁻¹.
Consider B3, for which the Kd was ≤ 1000 nM and the off-rate constant (koff) was ≤ 2 s⁻¹.
In the case of B4, the dissociation constant (Kd) was ≤ 1000 nM and the koff was ≤ 2 s⁻¹.
As to B5, the Kd was ≤ 1000 nM and the dissociation rate constant (koff) is ≤ 2 s⁻¹.
Take B6: the Kd was ≤ 1000 nM and the koff is ≤ 2 s⁻¹.
For B7, the Kd is ≤ 1000 nM and the koff is ≤ 2 s⁻¹.
On to B8, for which the dissociation constant (Kd) was ≤ 1000 nM and the koff was ≤ 2 s⁻¹.
In the case of B9, the dissociation constant Kd is ≤ 1000 nM and the off-rate (koff) is ≤ 2 s⁻¹.
Take B10: the Kd is ≤ 1000 nM and the dissociation rate constant (koff) is ≤ 2 s⁻¹.
Take B11: the Kd was ≤ 1000 nM and the koff is ≤ 2 s⁻¹.
In the same order, the values of B12 are ≤ 1000 nM and ≤ 2 s⁻¹.
As for B13, the Kd was ≤ 1000 nM and the off-rate constant (koff) was ≤ 2 s⁻¹.
In the case of B14, the Kd was ≤ 1000 nM and the off-rate (koff) was ≤ 2 s⁻¹.
With B15, the Kd was ≤ 1000 nM and the off-rate (koff) was ≤ 2 s⁻¹.
For B16 the same measures were ≤ 1000 nM and ≤ 2 s⁻¹.
For B17 the same measures were ≤ 1000 nM and ≤ 2 s⁻¹.
Turning to B18, the dissociation constant (Kd) is ≤ 1000 nM and the off-rate (koff) is ≤ 2 s⁻¹.
With B19, the Kd was ≤ 1000 nM and the off-rate (koff) is ≤ 2 s⁻¹.
In the case of B20, the Kd was ≤ 1000 nM and the dissociation rate constant (koff) was ≤ 2 s⁻¹.
Turning to B21, the Kd is ≤ 1000 nM and the koff was ≤ 2 s⁻¹.
